Assay results taken from publication PMC5343618.
Several values for one entry are separate records, joined by “and”; a condition that tells them apart may be missing. Equal values may be shown once. Each block holds one substance with its values, some of them ahead of it.

Columns and labels:
[1] = target: D-psicose 3-epimerase from Ruminococcus sp. 5_1_39BFAA (RDPE) (Ruminococcus sp. 5_1_39BFAA); experiment: native gel or EMSA; blue native PAGE (BN-PAGE) of the soluble cytoplasmic fraction and the culture supernatant of B. subtilis after 24 h of cultivation; non-reducing sample buffer, Coomassie blue; mass estimated within ±15%
[2] = target: D-psicose 3-epimerase from Ruminococcus sp. 5_1_39BFAA (RDPE) (Ruminococcus sp. 5_1_39BFAA); experiment: native gel or EMSA; soluble protein fractions combined with SDS at 0, 0.5%, 1% and 2% and run on a 10% acrylamide native gel
[3] = target: RDPE derivative with a C-terminal 6-His tag (RDPE-H) (Ruminococcus sp. 5_1_39BFAA); experiment: cross-linking; in vivo cross-linking of B. subtilis cells with 0.5 mM DSS in PBS pH 8.3, 20 min at 37 °C; cells recovered 1 h in fresh medium; 10% SDS-PAGE with β-mercaptoethanol and anti-His immunoblot of cell and supernatant fractions
[4] = target: RDPE truncated by a single amino acid from the N-terminus (ΔN1) (Ruminococcus sp. 5_1_39BFAA); experiment: native gel or EMSA; blue native PAGE (BN-PAGE) of the soluble cytoplasmic fraction and the culture supernatant of B. subtilis after 24 h of cultivation; non-reducing sample buffer, Coomassie blue; mass estimated within ±15%
[5] = target: RDPE variant 100A (Leu100 to alanine) (Ruminococcus sp. 5_1_39BFAA); experiment: as above
[6] = target: RDPE variant D102A (Ruminococcus sp. 5_1_39BFAA); experiment: as above
[7] = target: RDPE variant G107A (Ruminococcus sp. 5_1_39BFAA); experiment: as above
[8] = target: RDPE variant G181A (Ruminococcus sp. 5_1_39BFAA); experiment: as above
[9] = target: RDPE variant I103A (Ruminococcus sp. 5_1_39BFAA); experiment: as above
[10] = target: RDPE variant L184A (Ruminococcus sp. 5_1_39BFAA); experiment: as above
[11] = target: RDPE variant V106A (Ruminococcus sp. 5_1_39BFAA); experiment: as above
[12] = target: RDPE variant V175A (Ruminococcus sp. 5_1_39BFAA); experiment: as above
[13] = target: RDPE variant V180A (Ruminococcus sp. 5_1_39BFAA); experiment: as above
[14] = target: RDPE variant V182A (Ruminococcus sp. 5_1_39BFAA); experiment: as above
[15] = target: full-length RDPE fused to mCherry (RDPE-mCh) (Ruminococcus sp. 5_1_39BFAA); experiment: as above

- stoichiometry N [6]: 4
Substance: RDPE variant D102A (enzyme)

- stoichiometry N [9]: 4
Substance: RDPE variant I103A (enzyme)

- stoichiometry N [13]: 4
Substance: RDPE variant V180A (enzyme)

- stoichiometry N [15]: 4
Substance: full-length RDPE fused to mCherry (RDPE-mCh) (enzyme)

More lines, now with the values behind:

Substance: D-psicose 3-epimerase from Ruminococcus sp. 5_1_39BFAA (RDPE) (enzyme)
- stoichiometry N [1]: 4
- stoichiometry N [2]: 3 and 2

Substance: RDPE derivative with a C-terminal 6-His tag (RDPE-H) (enzyme)
- stoichiometry N [3]: 4

Substance: RDPE truncated by a single amino acid from the N-terminus (ΔN1) (enzyme)
- stoichiometry N [4]: 4

Substance: RDPE variant 100A (Leu100 to alanine) (enzyme)
- stoichiometry N [5]: 4

Substance: RDPE variant G107A (enzyme)
- stoichiometry N [7]: 4

Substance: RDPE variant G181A (enzyme)
- stoichiometry N [8]: 4

Substance: RDPE variant L184A (enzyme)
- stoichiometry N [10]: 4

Substance: RDPE variant V106A (enzyme)
- stoichiometry N [11]: 4

Substance: RDPE variant V175A (enzyme)
- stoichiometry N [12]: 4

Substance: RDPE variant V182A (enzyme)
- stoichiometry N [14]: 4
